Test results: paper PMC5389665

Target: TerL P74-26 nuclease domain (residues 256–485) (Thermus phage P74-26)
Experiment: SEC

stoichiometry N: 2
Substance: TerL P74-26 nuclease domain (residues 256–485) (domain or fragment)
